Reference: the RNAGym collection of RNA variant scans (doi:10.1073/pnas.2313332121)

B1: TPR t1 (parent)
chain: GACCAAUCUGCCCUCAGAGCUCGAGAACAUCUUCGGAUGCAGAGGAGGCAGGCUUCGGUGGCGCGAUAGCGCCAACGUCCUCAACCUCCAAUGCAUCCCACCACAUGAUGAUGCCUGAAGAGCCUUGGUUUUUUG

Variants of: B1
Assay: polymerase ribozyme fitness, log enrichment relative to wild type (log ratio); higher = more active; in vitro selection for triplet polymerase activity
Method in brief: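 A heterodimeric triplet polymerase ribozyme had each of its subunits mutagenized by PCR into a library, which was transcribed. One round of in vitro selection, done in triplicate, annealed each library with a biotinylated primer, its partner subunit and triplets, then incubated it frozen at −7 °C before gel excision of extended constructs, streptavidin-bead capture and RT-PCR. Fitness is the logarithm of genotype enrichment relative to wild-type enrichment, based on Illumina sequencing of inputs and outputs and inverse-variance-weighted replicate averages. A base-2 logarithm is used, and genotypes were kept only with ≥10 input reads and ≥1 read per output.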

| Variant | polymerase ribozyme fitness (log ratio) |
| --- | --- |
| GACCAAUCUGCCCUCAGAGGUCGAGAACAUCAUCGGAUGCAGACGAGGCAGGCUUCGGUGGCGCGAUAGCGCCAACGUCCUCAACCUCCAAUGCAUCCCACCACAUGAUGCUUCCUGAAGAGCCUUGGUUUUUUG | -2.86 |
| GACCAAUCUGCCCUCAGAGGUCGAGAACAUCUUCGGAUGCAGAGGAGGCAGGCUUCGGUGACGCGAUAGCGCCAACGUCCUCAACCUCCCAUGCUUCCCACCACAUGAUGAUGCCUGAAGAGCCUUGGUUUUUUG | -3.88 |
| GACCAAUCUGCCCUCAGAGUUCGUGAACAUCCUCGGAUGCAGAGGAGGCAGGCUUCGGUGGCGCGAUAGCGCCAACGUCCUCAAUCUCCAAUGCAUCCCAGCACAUGAUUAUGCCUGAAGAGCCUUGGUUUUUUG | -6.93 |
| GACCAAUCUGCCCUCAGAGGUCGAGAACAUCUUCGGAUGCAGAGGAGGCAGGCUUCGGUGGCACGAUAGCGCCAACGUCCUCAACCUCCAAUGCAUCCCACAACACGAUGAUGCCUGAAAAGCCUAGGUUUUUUG | -7.38 |
| GACCAAUCUGCCCUCAGAGUUCGAGAACAUCUUCGGUUGCAGAGGAGGCAGGCUUUGGUGGCGCGAUAGCGCCAACGUCCUCAACCUCCAAUGCAUCCCACCACAUGAUGAUGCCUGAAGAGCCUUGGUUUUUUG | -1.39 |
| GACCAAUCUGCCCUCAGAGGUCGAGAACAUCUUCGGAUGCAGAGGAGGCAGGCUUCGGUGGCGCGAUAUCGCCAACGUCCUCAACCUCCAAUGCAUCCAACCACAUGAUGAUGCCUGAAGAGCCUUGGUUUUUUG | -4.6 |
| GACCAAUCUGCCCUCAGAGUUCGAGAACAUCUUCGGAUGCAGAGGAGGCAGGCUUCGGUGGCGCGAUAGCGCCAACGUCCUCAACCUCCUAUACAUCCCACCACAUGAUGAUGCCUGAAGAGCCUUGGUUUUUUG | -2.41 |
| GACCAAUCUGCCCUCAGAGGUCGAGAACAUCUUCGGAUGCAGAGGAGGCAGGCUUCGGUGGCGCGAUAGCGCCAACGUCCUCAACCUCCAAUGCAUCCCACCACAUGAGGAUGCCUGAAGAGCCUUGGUUUUUUG | -3.38 |
| GACCAAUCUGCCCUCAGAGUUCGAGAACAUCUUCGGAUGCAGAGGAGGCAGGCUUCGGUGGCGCGAUAGCGCCAGCGUCCUCAACCUCCAAUGCAUCCCACCACAUGAUGAUGCCUGAAGAGCCUUGGUUUUUUG | -0.924 |
| GACCAAUCUGCCCUCAGAGUUCGAGAACAUCUUCGGAUGCAGAGGAGGCUGGCUUCGGUGGCGCGAUAGCGCCAACGUCCUCCACCUCCAAUGCAUCCCACCACAUGAUGAUGCCUGAAGAGCCUUGGUUUUUUG | -5.22 |
| GACCAAUCUGCCCUCAGAGUUCGAGAACGUCUUCGGAUGCAGAGGAGGAAGGCUUCGAUGGCGCGAUAGCGCCUACGUCCACAACCUCCAAUGCAUCCCACCACAUGAUGAAGCCUGAAGAGCCUUGGUUUUUUG | -3.14 |
| GACCAAUCUGCCCUCAGAGGUCGAGAACAUCCUCGGAUGCAGAGGAGCCAGGCUUCGGUGGCGCGAUAGCGCCAACGUCCUCAACCUCCAAUGCAUCCCACCACAUGAUGAUGCCUGAAAAGCCUUGGUAUUUUG | -5.95 |
| GACCAAUCUGCCCUCAGAGUUCGAGAACAUCUUCGGAUGCAGAGGAGGCAGGCUUCGGUGGCGCGAUAGCGCCAACGUCCUCCACCUCCAAUGCAUCCCACCACAUGAUGAUGCCUGAAGAGCCUUGGUUUUUUG | -1.52 |
| GACCAAUCUGCCCUCAGAGGUCGAGAACAUCUUCGGAUGCAGAGGAGGCAGGCUUCGGUGGCGCGAUAGCGCCAACGUCCUCAACCUCCAAUGCAUCCCACCACAUGAUCAUGCCUGAACAGCCUUGGUUUUUUG | -6.34 |
| GACCAAUCUGCCCUCAGAGGACGAGAACAUCUUCGGAUGCAGAGGAGGCAGGCUUCGGUGGCGCGAUAGCGCCAACGUCCUCAACCUCCAAUGCAUCCCACCACAUGAUGAAGCCUGAAGAGCCUUGGUUUUUUG | -0.639 |
| GACCAAUCUGCCCUCAGAGUUCGAGAACGUCUUCGGAUGCAGAGGAGGCAGGCUUCGGUGUCGCGAUAGCGCCAACGUCCUCAACCUCCAAUGCAUCCCACCACAUGAUGAUGCACUAAGAGCCUUGGUUUUUUC | -1.97 |
| GACCAAUCUGCCCUCAGAGGUCGAGAACAUCUUCGGAUGCAGAGGAGGCAGGCUUCGGUGGCGCGAUAGCGCCAACGUCCUCAACCUCCAAUGCAGCCCACCACAUGAUGAUGCCUGAAGAGCCUUGGUUUUUUG | -3.91 |
| GACCAAUCUGCCCUCAGAGGUCGAGAACAUCGUCGGAUGCAGAGGAGGCAGGCUUCGGUGGCGCGAUAGCGCCAACGUCCUCAACCUCCUAUUCAUCCCACCACAUGACGAUGCCUGAAGAGCCUUGGUUUUUUG | -4.13 |
| GACCAAUCUGCCCUCAGAGGUCGAGAACAUCUUCGGAUGCAGAGGAGGCAGGCGUCGGUGGCGCGAUAGCGCAAACGUCCUCAACCUCGAAUGCAUCCCCCCACAUGAUGAUGCCUGAAGAGCCUUGGUUUUUUG | -5.53 |
| GACCAAUCUGCCCUCAGAGUUCGAGAGCAUCUUCGGAUGCAGAGGAGGCAGGCUUCGGUGGCGCGAUAGCGCCAACGUCCUCAACCUCCAAUGCAUCCCACCACAUGAUGAUGCCUGAAGAGCCUUGGUUUUUUG | -3.07 |
| GACCAAUCUGCCCUCAGAGUUCGAGAACCUCUUCGGAUGCAGAGGAGGCAGGCUUCGGUGGCGCGAUAGCGCCAACGUCCUCAACCUCCAAUGCAUCCCACCACAUGAUGAUGCCUGAAAAGCCUUGGUUUUUUG | -3.64 |
